Source: patent US20250049939A1, “NOVEL FLT3 ANTIBODIES AND ANTIBODY-DRUG-CONJUGATES BASED THEREON, THERAPEUTIC METHODS AND USES THEREOF IN COMBINATION WITH TYROSINE KINASE INHIBITORS” (TUBULIS GmbH, priority 2021, published 2025)

T1: recombinant human FLT3 (Homo sapiens, UniProt P36888)
T1 construct: purchased Sino Biological 10445-H08H
T1 sequence (P36888 27-541 limits assumed): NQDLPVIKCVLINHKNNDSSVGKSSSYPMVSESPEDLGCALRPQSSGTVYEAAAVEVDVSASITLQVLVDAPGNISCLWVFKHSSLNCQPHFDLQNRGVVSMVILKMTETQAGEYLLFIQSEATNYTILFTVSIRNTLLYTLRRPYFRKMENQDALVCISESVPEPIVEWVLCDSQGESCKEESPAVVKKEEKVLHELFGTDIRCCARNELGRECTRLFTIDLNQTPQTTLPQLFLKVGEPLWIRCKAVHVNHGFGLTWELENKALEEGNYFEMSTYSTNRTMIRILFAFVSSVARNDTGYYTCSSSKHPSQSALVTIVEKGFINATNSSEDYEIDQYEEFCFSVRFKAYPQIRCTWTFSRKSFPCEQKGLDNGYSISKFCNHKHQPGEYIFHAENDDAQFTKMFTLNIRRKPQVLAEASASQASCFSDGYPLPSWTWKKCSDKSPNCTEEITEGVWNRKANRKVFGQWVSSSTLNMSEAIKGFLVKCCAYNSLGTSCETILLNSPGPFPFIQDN

T2: Ba/F3 cells expressing human wildtype FLT3 (Homo sapiens, UniProt P36888)
T2 construct: expressed in transfected cells; host or cells: Ba/F3 cells, retrovirally transduced with MSCV-IRES-YFP (pMIY) vector
T2 sequence (P36888 27-993): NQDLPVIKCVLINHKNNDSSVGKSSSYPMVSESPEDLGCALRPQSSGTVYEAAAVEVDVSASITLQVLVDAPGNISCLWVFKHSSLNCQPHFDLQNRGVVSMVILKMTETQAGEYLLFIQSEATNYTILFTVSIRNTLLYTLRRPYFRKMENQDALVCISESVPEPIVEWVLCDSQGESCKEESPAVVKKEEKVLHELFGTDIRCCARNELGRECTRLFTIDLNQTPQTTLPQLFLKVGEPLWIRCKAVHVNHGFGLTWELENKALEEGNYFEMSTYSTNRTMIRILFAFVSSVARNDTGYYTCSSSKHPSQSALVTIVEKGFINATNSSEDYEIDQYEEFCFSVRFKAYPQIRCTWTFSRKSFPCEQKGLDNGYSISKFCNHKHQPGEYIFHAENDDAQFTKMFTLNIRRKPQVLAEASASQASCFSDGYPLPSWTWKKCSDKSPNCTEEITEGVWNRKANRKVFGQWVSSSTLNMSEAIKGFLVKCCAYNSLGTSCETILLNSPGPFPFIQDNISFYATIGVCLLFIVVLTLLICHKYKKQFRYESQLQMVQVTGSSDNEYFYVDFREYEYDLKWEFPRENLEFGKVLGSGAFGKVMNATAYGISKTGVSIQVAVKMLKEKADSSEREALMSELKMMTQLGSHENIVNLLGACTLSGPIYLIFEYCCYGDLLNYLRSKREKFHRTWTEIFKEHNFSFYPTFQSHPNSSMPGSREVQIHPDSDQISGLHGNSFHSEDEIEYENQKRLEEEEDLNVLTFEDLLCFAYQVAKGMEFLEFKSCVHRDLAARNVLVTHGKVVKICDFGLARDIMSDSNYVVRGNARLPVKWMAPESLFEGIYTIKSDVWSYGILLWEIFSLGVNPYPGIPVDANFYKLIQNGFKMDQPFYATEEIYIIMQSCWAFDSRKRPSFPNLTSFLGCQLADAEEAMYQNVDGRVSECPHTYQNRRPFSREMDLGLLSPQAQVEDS


What was measured:
[1] = tested on: MOLM-13 (FLT3 positive) cells; test: Temperature induced internalization in MOLM-13, flow cytometry; type: cell-based, human; conditions: 30 min at 37° C. compared to 4° C.
Protocol: For antibody binding studies, cells were stained on ice with primary mouse, rat or human anti-FLT3 antibodies (in house) and secondary antibody Goat F(ab′)2 Anti-Human Ig-PE (2012-09), Goat Anti-Mouse IgG (H+L)-PE (1032-09) or Goat Anti-Rat IgG (H+L)-PE (3052-09) purchased from Southern Biotech. For internalization experiments, cells incubated with anti-FLT3 antibodies were washed and incubated for 30 min at 4° C. or 37° C. followed by staining with secondary antibody.

[2] = target: T1, recombinant human FLT3; test: ELISA affinity to recombinant human FLT3; type: binding; conditions: chimeric Ab clones
Source text: FIG. 1: Evaluation of epitope specificity and internalization capability of anti-FLT3 monoclonal antibodies. (A) Affinity of seven anti-FLT3 monoclonal antibody (mab) clones to recombinant human FLT3 measured in enzyme-linked immunosorbent assay (ELISA) normalized to the binding of the antibodies to BSA control. […] (B) Schematic FLT3 receptor. Black arrows indicate common mutations and blue arrows indicate the three identified epitopes of seven anti-FLT3 antibodies analyzed in linear epitope mapping by PEPperPRINT. Figure was created with BioRender.com. (C) Binding and temperature induced internalization of anti-FLT3 antibodies in Ba/F3 cells expressing human wildtype FLT3. Internalization was induced by incubation for 30 min at 37° C. (grey) compared to 4° C. (black). Remaining surface-bound antibody was detected in flow cytometry. MFI was normalized to control human IgG1 binding. MFI=mean fluorescence intensity. […] (D) Cell surface binding of 20D9 mab or control human IgG1 antibody to Ba/F3 cells stably expressing pMIY (Ba/F3-pMIY) empty vector (ev), human wildtype (hFLT3 wt) or ITD mutant human FLT3 (hFLT3ITD) was measured in flow cytometry. Mean±s.d. of n=3. (E) Temperature induced internalization of 4B12 mab in MOLM-13 (FLT3 positive) cells after 30 min incubation at 37° C. compared to 4° C. and HL-60 (FLT3 negative) after 37° C. incubation assessed in immunofluorescence staining. Red=FLT3 staining by 4B12, Green=membrane staining by Vybrant DiO, Blue=nuclear staining by DAPI. Scale bar 5 μm. Representative pictures are shown. (F) Cell surface binding of 20D9 mab or control hIgG1 antibody to Ba/F3-pMIY ev, hFLT3 wt, murine (mFLT3 wt) or cynomolgues monkey FLT3 (cynoFLT3 wt) was measured in flow cytometry. Mean±s.d. of n=3. (G) Cell surface binding of 20D9 mab or control hIgG1 antibody to Ba/F3-PMIY ev, hFLT3 wt or epitope mutant FLT3 (hFLT3/S50P/P54R) measured in flow cytometry. Mean±s.d. of n=3. (H) Cell surface binding of 20D9 mab or control hIgG1 antibody to Ba/F3-PMIY ev, hFLT3 wt or human CD64 (hCD64) measured in flow cytometry. Mean±s.d. of n=3.
Maxisorp plates were coated with human recombinant FLT3 protein (10445-H08H, Sino Biological). Chimeric (20D9) or humanized anti-FLT3 monoclonal antibodies (in house) and secondary alkaline phosphatase conjugated rabbit anti-human IgG antibody (309-055-008, Jackson Immunoresearch) were used. For detection, Attophos Fluorescent Substrate System (S1000, Promega) was applied. The fluorescence was read with excitation of 405 nm and emission at 500-550 nm. The calculation of the dissociation constant KD was performed using GraphPad Prism version 9.4.0.

[3] = target: T2, Ba/F3 cells expressing human wildtype FLT3; test: Temperature induced internalization in Ba/F3-FLT3, flow cytometry; type: cell-based; conditions: 30 min at 37° C. compared to 4° C.
Source text: FIG. 1: Evaluation of epitope specificity and internalization capability of anti-FLT3 monoclonal antibodies. (A) Affinity of seven anti-FLT3 monoclonal antibody (mab) clones to recombinant human FLT3 measured in enzyme-linked immunosorbent assay (ELISA) normalized to the binding of the antibodies to BSA control. […] (B) Schematic FLT3 receptor. Black arrows indicate common mutations and blue arrows indicate the three identified epitopes of seven anti-FLT3 antibodies analyzed in linear epitope mapping by PEPperPRINT. Figure was created with BioRender.com. (C) Binding and temperature induced internalization of anti-FLT3 antibodies in Ba/F3 cells expressing human wildtype FLT3. Internalization was induced by incubation for 30 min at 37° C. (grey) compared to 4° C. (black). Remaining surface-bound antibody was detected in flow cytometry. MFI was normalized to control human IgG1 binding. MFI=mean fluorescence intensity. […] (D) Cell surface binding of 20D9 mab or control human IgG1 antibody to Ba/F3 cells stably expressing pMIY (Ba/F3-pMIY) empty vector (ev), human wildtype (hFLT3 wt) or ITD mutant human FLT3 (hFLT3ITD) was measured in flow cytometry. Mean±s.d. of n=3. (E) Temperature induced internalization of 4B12 mab in MOLM-13 (FLT3 positive) cells after 30 min incubation at 37° C. compared to 4° C. and HL-60 (FLT3 negative) after 37° C. incubation assessed in immunofluorescence staining. Red=FLT3 staining by 4B12, Green=membrane staining by Vybrant DiO, Blue=nuclear staining by DAPI. Scale bar 5 μm. Representative pictures are shown. (F) Cell surface binding of 20D9 mab or control hIgG1 antibody to Ba/F3-pMIY ev, hFLT3 wt, murine (mFLT3 wt) or cynomolgues monkey FLT3 (cynoFLT3 wt) was measured in flow cytometry. Mean±s.d. of n=3. (G) Cell surface binding of 20D9 mab or control hIgG1 antibody to Ba/F3-PMIY ev, hFLT3 wt or epitope mutant FLT3 (hFLT3/S50P/P54R) measured in flow cytometry. Mean±s.d. of n=3. (H) Cell surface binding of 20D9 mab or control hIgG1 antibody to Ba/F3-PMIY ev, hFLT3 wt or human CD64 (hCD64) measured in flow cytometry. Mean±s.d. of n=3. […]

| Affinity Kd [2] [µg/mL] | Internalization in Ba/F3-FLT3 [3] [%] | Molecule | Internalization in MOLM-13 [1] [%] |
| --- | --- | --- | --- |
| 3.981 | 26 | 2F12: chimeric anti-FLT3 antibody from rat; VH SEQ ID NO: 7, VL SEQ ID NO: 8 (antibody, V domains shown, Clone 2F12, heavy chain variable region without a signal seqeunce; Clone 2F12, light chain variable region without a signal seqeunce) VH: EVKLEESGGGLVQPGGSMKLSCVASGFTFSNYWMNWVRQSPEKGLEWVAQIRLKSDNYATHYAESVKGRFTISRDDSKDSVYLQMNNLRAEDTGIYYCAVSLARSDYWGQGTTLTVSSA VL: DVVMTQSPPSLSASLGDKVTITCQASQNINKYIAWYQQKPGKAPRLLIRYTSTLESGTPSRFSGSGSGRDFSFSISNVESEDIASYYCLQYVNLPRTFGGGTKLELKR | 12 |
| 0.1339 |  | 19H5: chimeric anti-FLT3 antibody from rat; VH SEQ ID NO: 17, VL SEQ ID NO: 18 (antibody, V domains shown, Clone 19H5, heavy chain variable region without a signal seqeunce; Clone 19H5, light chain variable region without a signal seqeunce) VH: MVQPSQTLSLTCTVSGFSLTSYNVNWVRQPPGKGLEWIGAMWRGGGTDYNPALKSRLSISRDTSKSQVFLKMNRLQTEDTAIYFCTRGFGDYWGQGVMVTVSSA VL: DVQMTQSPSSMSASLGDRVTFTCQASQDIGNNLIYFQQKPGKSPRRMICCATNLAHGVPSRFSGSRSGSDYSLTLVSLESEDVADYHCLQYEHYPRTFGGGTKLELKR |  |
